These results are taken from US20220242973A1 (Molecular Partners, published 2022).

The target in test [1] is T1, Recombinant human FAP (fibroblast activation protein) (human, UniProt Q12884 26-760).
T1 construct: Bought soluble recombinant protein; Chemically biotinylated for the HTRF screen; also called hFAP; biotinylated human FAP
T1 sequence (looked up): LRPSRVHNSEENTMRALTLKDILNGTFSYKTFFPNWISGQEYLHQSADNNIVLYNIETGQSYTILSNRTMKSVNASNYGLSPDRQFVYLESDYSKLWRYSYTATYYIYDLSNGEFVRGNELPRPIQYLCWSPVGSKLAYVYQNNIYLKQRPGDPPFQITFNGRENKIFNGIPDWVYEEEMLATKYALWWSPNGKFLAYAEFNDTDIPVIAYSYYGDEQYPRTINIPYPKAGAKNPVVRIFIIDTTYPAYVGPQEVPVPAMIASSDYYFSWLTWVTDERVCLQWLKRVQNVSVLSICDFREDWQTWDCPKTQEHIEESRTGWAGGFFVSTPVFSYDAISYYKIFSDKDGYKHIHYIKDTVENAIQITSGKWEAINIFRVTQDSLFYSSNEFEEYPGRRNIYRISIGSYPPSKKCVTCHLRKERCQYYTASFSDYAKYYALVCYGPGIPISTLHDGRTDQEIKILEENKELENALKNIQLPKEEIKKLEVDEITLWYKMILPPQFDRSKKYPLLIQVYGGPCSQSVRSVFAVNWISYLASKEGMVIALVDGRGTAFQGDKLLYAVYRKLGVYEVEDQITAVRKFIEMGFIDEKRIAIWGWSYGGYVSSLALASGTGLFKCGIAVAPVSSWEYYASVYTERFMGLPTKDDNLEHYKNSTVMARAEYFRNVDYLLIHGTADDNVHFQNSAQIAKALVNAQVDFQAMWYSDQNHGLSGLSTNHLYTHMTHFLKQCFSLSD
The test is described as follows: SPR (ProteOn), human FAP immobilized on GLC chip. As for the experimental part: Briefly, human FAP was diluted in 10 mM Na-acetate pH 5.3 buffer and covalently immobilized on a GLC chip (BioRad) to a level of around 2000 resonance units (RU). The interaction of ankyrin repeat protein and hFAP was then measured by injecting 200 μl running buffer (PBS, pH 7.4 containing 0.005% Tween 20®) containing serial dilutions of ankyrin repeat proteins covering a concentration range between 30 nM and 0.5 nM (on-rate measurement), followed by a running buffer flow for at least 25 minutes at a constant flow rate of 100 μl/min (off-rate measurement). The regeneration was performed using 15 μl of 10 mM Glycine pH 2 followed by 15 μl of 124 mM H₃PO₄. […] Based on the SPR traces obtained from the on-rate and off-rate measurements, the on- and off-rate of the corresponding ankyrin repeat protein—FAP interaction was determined.
Briefly, mouse FAP was diluted in 10 mM Na-acetate pH5.3 buffer and covalently immobilized on a GLC chip (BioRad) to a level of around 2000 resonance units (RU). The interaction of DARPin® protein #41 and mFAP was then measured by injecting 200 μl running buffer (PBS, pH7.4 containing 0.005% Tween20®) containing serial dilutions of DARPin® protein #41 covering a concentration range between 50 nM and 3 nM (on-rate measurement), followed by a running buffer flow for 30 minutes at a constant flow rate of 100 μl/min (off-rate measurement). […]

In the next test the target is T2, Recombinant mouse FAP (mouse, UniProt P97321 26-761).
T2 construct: Bought soluble recombinant protein; also called mFAP
T2 sequence (looked up): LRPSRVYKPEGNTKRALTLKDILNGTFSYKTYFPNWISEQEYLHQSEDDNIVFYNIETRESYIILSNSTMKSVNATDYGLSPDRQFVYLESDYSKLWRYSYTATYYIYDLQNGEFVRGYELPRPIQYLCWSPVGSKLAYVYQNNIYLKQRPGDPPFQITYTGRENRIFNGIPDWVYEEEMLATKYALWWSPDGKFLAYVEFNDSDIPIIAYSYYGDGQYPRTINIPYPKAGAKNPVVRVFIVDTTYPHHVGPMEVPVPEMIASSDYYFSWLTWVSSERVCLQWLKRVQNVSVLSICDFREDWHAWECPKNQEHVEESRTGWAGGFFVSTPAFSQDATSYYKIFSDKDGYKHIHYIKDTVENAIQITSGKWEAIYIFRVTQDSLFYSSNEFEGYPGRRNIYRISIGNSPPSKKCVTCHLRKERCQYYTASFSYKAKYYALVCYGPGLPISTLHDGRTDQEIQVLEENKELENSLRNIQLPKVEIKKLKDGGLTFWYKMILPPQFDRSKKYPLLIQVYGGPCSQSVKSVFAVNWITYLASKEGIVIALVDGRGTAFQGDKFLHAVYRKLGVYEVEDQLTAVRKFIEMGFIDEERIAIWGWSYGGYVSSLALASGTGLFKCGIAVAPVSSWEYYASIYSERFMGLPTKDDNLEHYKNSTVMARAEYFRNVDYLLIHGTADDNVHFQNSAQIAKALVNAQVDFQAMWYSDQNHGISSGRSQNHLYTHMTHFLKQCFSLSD
The test is described as follows: SPR (ProteOn), mouse FAP immobilized on GLC chip. As for the experimental part:
Briefly, mouse FAP was diluted in 10 mM Na-acetate pH5.3 buffer and covalently immobilized on a GLC chip (BioRad) to a level of around 2000 resonance units (RU). The interaction of DARPin® protein #41 and mFAP was then measured by injecting 200 μl running buffer (PBS, pH7.4 containing 0.005% Tween20®) containing serial dilutions of DARPin® protein #41 covering a concentration range between 50 nM and 3 nM (on-rate measurement), followed by a running buffer flow for 30 minutes at a constant flow rate of 100 μl/min (off-rate measurement). The regeneration was performed using 15 μl of 10 mM Glycine pH 2 followed by 15 μl of 124 mM H₃PO₄. The signals (i.e. resonance unit (RU) values) of the interspots and a reference injection (i.e. injection of running buffer only) were subtracted from the RU traces obtained after injection of DARPin® protein #41 (double-referencing). The binding of DARPin® protein #41 to hFAP was determined as described in Example 2.
Dissociation constants (KD) were calculated from the estimated on- and off-rates using standard procedures known to the person skilled in the art and are reported in Table 7. […] The dissociation constant of DARPin® protein #41 for binding to mouse FAP was determined to be 1.3 nM.

B1: DARPin® protein #41 (designed binder)
chain: MRGSHHHHHHGSDLGKKLLEAARAGQDDEVRELLKAGADVNAKDYFSHTPLHLAARNGHLKIVEVLLKAGADVNAKDFAGKTPLHLAANEGHLEIVEVLLKAGADVNAQDIFGKTPADIAADAGHEDIAEVLQKAAGSPTPTPTTPTPTPTTPTPTPTGSDLGEKLLVAALYGQDDEVRILLAAGADVNAKDQWGLTPLHKAALQGHLEIVEVLLKAGADVNAKDERGHTPLHWAARFGHLEIVEVLLKAGADVNAQDQKGYTPADLAALWGHEDIAEVLQKAA
notes: Fusion of a serum albumin-specific and a FAP-specific ankyrin repeat domain
As to B1, the Kd in test [1] turned out to be 0.264 nM; with Recombinant mouse FAP, 1.3 nM.

What is called Kd is a measure of binding affinity in units of concentration.
